The text below walks through data of the supplement of paper PMC12042874.

± gives the uncertainty stated by the source.

The nature of the series: amyloid nucleation score (Sup35N fusion, yeast selection) (log enrichment); library NNK2; higher = more nucleation; inactive = no reads after selection. An outline of the steps: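 The nucleation score equals the log enrichment of output over input reads from DiMSum, centred on the mode score of non-aggregating sequences. It was computed only for sequences with 100 or more input reads. The reads came from Illumina sequencing of plasmid inserts from psi-negative yeast expressing Sup35N fused to peptides of 20 random codons, induced with 100 μM copper sulfate for 24 hours and grown 7 days at 30°C without adenine and uracil.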
TFRDYQYMYFRSRNII: the amyloid nucleation score was 0.034 ± 1.1.

In the case of KYRKSGSERTRARTGVCTVW, the amyloid nucleation score was 0.585 ± 0.66.

For YNCGSLILNRISSGL, the amyloid nucleation score is -2.21 ± 0.76. For PILADGLCIFNR, the amyloid nucleation score is -0.47 ± 0.34.

Regarding VLRLRGLRRWI, the amyloid nucleation score was 0.638 ± 0.23. As for NFSSWSER, the amyloid nucleation score is -0.885 ± 0.54. The value for VTSLDFKFNVGEY was 0.832 ± 0.67. The value for FLCVTISLDNSVACLPLRYS was 0.532 ± 0.66. As for IVSSGPIKLNTSCFRTAYML, the figure is -0.854 ± 0.63. Regarding IWSSHRVSHGVILESGEVWA, the amyloid nucleation score was -0.25 ± 0.42. On to RCSDVTDFNKM, for which the amyloid nucleation score amounted to 0.122 ± 1.1. Take MIFSEFGAEVIVGWFVVSVG: the amyloid nucleation score is -0.9 ± 0.76. As for YSYVGFIF, the figure is 1.49 ± 0.32; as for MNKCFFTSRSEG, “inactive”.

NCSCIFKNCGFNWVFLGRIL had an amyloid nucleation score of 2.29 ± 0.17. As for VHNVLKRVYSYGFFNKEHIY, the entry is “inactive”.

Turning to SLNSGFRDPIYWSVLRRSPS, the amyloid nucleation score came out at 6.81 ± 0.086. The value for NHCPHTKWGTTYCAHGCIHA was 0.639 ± 0.46; that for SSYGLVKR was 0.655 ± 0.35. Regarding SILNDESFILLDILMVHFEY, the amyloid nucleation score is -0.547 ± 0.35. The value for VNMIRRTINSGVYRWSFQLQ was 1.14 ± 0.54; that for FSMRFRKVFICKMDIQQAYV was 0.13 ± 1.1. For the substance VNSLFLVVRYGG, the amyloid nucleation score was determined as 5.25 ± 0.05. The value for IGTGLDADTSM was 1.44 ± 0.16; that for SAADQPKWRSTTSCVPSDVS was 3.74 ± 0.068; that for AFEPDIK was -0.738 ± 0.62. As for YYSLLLGSTKSVAN, the figure is -0.038 ± 0.33; as for RFRRLSIIVILYTASRDLWR, 0.289 ± 0.41; as for DRSFVETREVACVVMYTSVF, -0.395 ± 0.61. As for VSNGVVMDKCIRKICTVLTM, the figure is -0.667 ± 0.45; as for VKVRFFSHVNSMMSLKSIVV, “inactive”. The substance NDRRRRGCRWMVAALVSSVL displayed an amyloid nucleation score of 0.966 ± 0.53. As for LSSSMSSSRASQDFGFLGVH, the figure is 0.877 ± 0.48; as for HLLRNLLPHKVGSHVHRWLR, “inactive”; as for SYSMLIMFFFVIKYRSDFQL, “inactive”. The value for NFIDRQLSILYMMFLITEC was -0.774 ± 1.1; that for PIGINSVKVSNYINLRYCAC was 5.736 ± 0.043.

In the case of DGPNYILQVFCCMMVNVCGC, the amyloid nucleation score was found to be 7.609 ± 0.061. Regarding ASSTRRSRSFNIGILCMFRM, the amyloid nucleation score amounted to 5.66 ± 0.06.

Consider LDIYYMMYYFRFSWD, for which the amyloid nucleation score was -2.64 ± 0.75. The value for IRNQWMQVSQVFSVSRAVET was 0.369 ± 0.3; that for VLVMVRTFNGNILPFLAPDL was 5.714 ± 0.024; that for DGLARAYAARM was 1.53 ± 0.29. As for VISASSVAP, the figure is 0.557 ± 0.31; as for GSVRTDVLSPRFGGTGHLVN, -0.116 ± 0.54; as for FHCVVVYNNRQMCSVTKDSS, 7.962 ± 0.031.

As for SDCFMGANDVMNKLEYGLDA, the amyloid nucleation score came to 0.091 ± 0.22. As for FRTQCHRAMDRASCRVLVRP, the entry is “inactive”; as for WVLMYDICGS, “inactive”. In turn, WFLGMGKFHRRAWAARLFMV registered an amyloid nucleation score of 2.45 ± 0.12. As for AVYCTL, the amyloid nucleation score was 0.088 ± 0.35.

MWPHRFM showed an amyloid nucleation score of 0.72 ± 0.28. As for SKDLSISQWSLGWLCHVWHT, the figure is -0.153 ± 0.79. Regarding LDGITSIDG, the amyloid nucleation score was -1.15 ± 0.74. As for YCMNLKDSTLLILKQPARST, the figure is 7.045 ± 0.047. The value for VEHEFVQILT was -0.733 ± 0.36. The value for DRWGFDFCQLLV was 1.95 ± 0.12. Regarding PGLTVYFGTVRMKVHCWSYR, the amyloid nucleation score was determined as 9.779 ± 0.029. As for CQMYYFYFNLLMWDMA, the entry is “inactive”. The value for PQHFGEPTLIMVGKGLGCLR was 0.178 ± 0.77; that for NSMSDLFSFSY was “inactive”; that for GYLILFTCNPLVFLVNRSGR was “inactive”. As for RMDGNLQGHDDCVNV, the figure is 0.773 ± 0.29; as for LDLNFEWFW, “inactive”. As for PAWATTLLDTSTARLYNMLA, the amyloid nucleation score worked out at 0.157 ± 0.18.

Regarding KSSSAVIW, the amyloid nucleation score is -0.045 ± 0.53. Take RSVVVGGHNLRISTQAILIP: the amyloid nucleation score came out at 0.34 ± 0.64. On to ILYVACSNMRCPILFMAGA, for which the amyloid nucleation score is 2.12 ± 0.12.

RYYHLCAI yielded an amyloid nucleation score of 0.289 ± 0.8. The value for LCFMF was 0.4 ± 0.51; that for AALPFHEVPTGLMITRAFWD was 3.72 ± 0.13; that for TCCKLEDSYSWSALKLTSLA was 1.27 ± 0.35. On to ISVGGLSHMGTVGSLMKVTQ, for which the amyloid nucleation score was -0.023 ± 0.29. As for FFGGNCKVK, the amyloid nucleation score is -0.146 ± 0.32.

Substance SDIYRSSRLQ came in with an amyloid nucleation score of 0.179 ± 0.33.

With KSYLWASAAVEGNCYNPVNR, the amyloid nucleation score was -0.195 ± 0.48. As for NGITDV, the figure is -0.414 ± 0.45. The value for IQTNVYWGISCCVSLSLSGL was 9.549 ± 0.022.

Turning to SVNFSANRRNIDGFERAGPA, the amyloid nucleation score was -0.476 ± 1.1. The value for LSNWSPFYMLHQSISFCSRS was 3.08 ± 0.051. As for PYTSS, the figure is -0.107 ± 0.41. As for VVVLFIEVLNCYLRGKVKCM, the amyloid nucleation score is -0.802 ± 0.39. As for LDAGCRMYWGVRLEFRICNL, the figure is 4.79 ± 0.062; as for AQCAYTTDGFPFLCWRSGTF, 0.701 ± 0.6; as for SICASWNRINGIVTKLGWSE, -0.739 ± 0.32. The value for IPFLAVACLGDQWDD was 0.304 ± 0.18; that for IVNINYCFTFKVPNHNNSMK was 7.923 ± 0.04; that for CLCGYYQSRMDTYYEL was -2.18 ± 0.54.

The substance TCLMDGSTCTRFGGPLEPMC displayed an amyloid nucleation score of 0.028 ± 0.79.

As to MKLYSISELLFKFLLHSLCA, the amyloid nucleation score entry was “inactive”. Consider MMMLLG, for which the amyloid nucleation score stood at 0.505 ± 0.13. As for EEVQAFI, the figure is -0.22 ± 0.48. The value for IKHDLSTFNNFSPVSWNMVY was -0.307 ± 0.79; that for CQPNLWARVCLVWCYW was 3 ± 0.094; that for SFPMLVISVS was 4.7 ± 0.068.

As for KCILDRVRGTGLGIMKLKRG, the amyloid nucleation score was found to be 0.306 ± 0.65. The value for RCNIWCHFPVCRAINIMLQA was -0.147 ± 1.1; that for SRFRIMSNLGVKWGPCRVYL was 0.164 ± 0.8; that for DCIHCSRTNAADWMGYVFGY was 4.82 ± 0.085.

Consider GKIRIENGLRGSLGDIRHNI, for which the amyloid nucleation score is -0.623 ± 1. The value for GKVAAGVIGRYTY was -0.477 ± 0.22; that for GVRAGACLGNGSVYSSGGRF was “inactive”.

For LDLALSQH, the amyloid nucleation score is 1.54 ± 0.53. As for CCRGLIRMLDCCNYRRK, the figure is 3.75 ± 0.067. The value for LAGYNFLKETRDMVTIMAYE was “inactive”; that for ASQFCNKSSSYRDSRYLYTL was -0.802 ± 0.38. Take SVYLNPHPTLMGNQSVLKLI: the amyloid nucleation score was found to be 1.29 ± 0.66. In the case of LCSRFALWVRKF, the amyloid nucleation score is -0.291 ± 0.63. In the case of ISSEHNAWYEVA, the amyloid nucleation score result is “inactive”.

The substance RRVGLSGRTKMSG had an amyloid nucleation score of 0.048 ± 0.55. The value for QESWHNYESS was -0.805 ± 0.64. As for KGDQKSTFCVRPFWESPNIV, the figure is -0.046 ± 0.74; as for IRRGTYNFLMFQKDSFEYVS, 0.536 ± 0.62; as for VSRMYKHLSYMVLIYSPWRE, -0.315 ± 1. As for WNLFMQYAFYRMDLASK, the figure is -0.689 ± 1.1; as for CDFSSVTD, -0.357 ± 0.4; as for YILSDIIFMGIWGV, 4.1 ± 0.13. Regarding PAVDRIFSRLCTYSGQFIPQ, the amyloid nucleation score was 4.66 ± 0.061. The value for VTEIFMLAL was -0.129 ± 1.1. The value for YSSNMASALSYICDPMIFNF was -0.703 ± 0.56; that for QHTKGHSPEWD was 1.47 ± 0.28. Turning to LFTVYFKK, the amyloid nucleation score is -0.6 ± 0.63. The value for IISYEVWSPQQGDLNSHHCL was “inactive”. As for LAMLRS, the figure is 1.17 ± 0.34; as for LSFGIVKLVMRAFTKKVTKG, 0.388 ± 0.47; as for RYAINCVEAYGLC, -0.387 ± 0.63. In turn, HGTATCVAILMNRL returned an amyloid nucleation score of 6.35 ± 0.077.

MSFYPRWFSQGMLWCKHHHA: the amyloid nucleation score came to 0.516 ± 0.81. For GSHLSSSFTKWMGIPAMVFR, the amyloid nucleation score is -0.134 ± 0.54. Regarding RFMWLTLSSFQGLAEGLCTF, the amyloid nucleation score is -0.631 ± 0.76. As for CVSVAFNRNISWW, the amyloid nucleation score is -0.021 ± 0.34. As for MRYYWMWHKVVM, the amyloid nucleation score amounted to 0.069 ± 0.29. The value for CLQCQLIRRGLTKMNMGFAS was -0.023 ± 0.45. Regarding WDCGQTIYGFWDD, the amyloid nucleation score was -0.58 ± 0.48. The value for FTGIRRGLWLS was 0.405 ± 0.56; that for LCNSTNSESIIVLDITALTH was 0.405 ± 0.51; that for ALFMDPFAVTLMRGL was 0.137 ± 0.54.

With RIVLLLNVYNTREM, the amyloid nucleation score stood at 5.04 ± 0.1. The value for NSMPATIYFMRSPDIGFSV was 2.81 ± 0.16; that for SAVFLLRLCTQIKCMTVR was “inactive”.

Substance FDMVSVVVYMRAVTTKCGPS displayed an amyloid nucleation score of 1.73 ± 0.24.
